According to patent US20090297504A1 (published 2009):
Where no end group is shown, it is not given here.

Assays:
[1] = biological target: Murine APRIL (K104-L241) thioredoxin fusion protein (murine) (UniProt Q9D777); test: SPR (BIAcore 3000), APRIL immobilized, receptor as analyte, 1:1 model
[2] = biological target: T1, Human BAFF (residues 82-285) (human, UniProt Q9Y275 82-285); test: competition ELISA; immobilized BAFF, biotinylated miniBR3 tracer (FIG. 7)
T1 construct: also called BAFF82-285
Procedure: The plate was washed with PBS and blocked for 1 hr with 200 μl of 0.2% BSA in PBS at room temperature. […] The plate was washed with PBS/Tween-20 and incubated with 100 μl/well of 0.1 U/ml Streptavidin-POD (Boehringer Mannheim) for 15 minutes at room temperature. After washing the plate with PBS/0.05% Tween-20 followed by a final wash in PBS, the plate was incubated for 5 min with 100 μl/well PBS substrate solution containing 0.8 mg/ml OPD (Sigma) and 0.01% H₂O₂.

[3] = biological target: T1, Human BAFF (residues 82-285); test: SPR (BIAcore 3000), BAFF immobilized, receptor as analyte
Procedure: Measurement of binding constants for receptors to ligands. […] CM5 chips from BIAcore were docked according to manufacturer instructions. Then, BIAcore system was primed with 0.2 μm filtered buffer containing 10 mM Hepes pH 7.2, 150 mM NaCl, 0.005% Tween20. After buffer priming, the flow cells were normalized with 70% glycerol. Each flow cell surface was activated individually in preparation for linkage of the ligand to the chip with a 1:1 mixture of EDC(N-ethyl-N′-(3-dimethyl aminopropyl)-carbodiimide hydrochloride) and NHS(N-hydroxysuccinimide). […] Generally, the ligand to be immobilized (30 μg/ml in 10 mM NaOAc, pH 5 buffer) was injected into the system at 40 μl/min. Once approximately 400 RU was generated, the flow cell was blocked with ethanolamine. […] The system was then primed again.
The ligand-receptor complex was allowed to dissociate by washing the flow cell at 30 μl/min for 600 seconds. Alternatively, if several binding measurements over the same flow cell were to be performed, the ligand-receptor complex was allowed to dissociate by washing the flow cell at 30 μl/min for 900 seconds. Sensorgrams were recorded for each binding assay. A 1:1 Langmuir binding equation was used to simultaneously fit the association and dissociation rates of the ligand-analyte interactions. kₐ, kd, KD were calculated using curve fit analysis software provided with the BiaCore instrument

T1 sequence (Q9Y275 82-285): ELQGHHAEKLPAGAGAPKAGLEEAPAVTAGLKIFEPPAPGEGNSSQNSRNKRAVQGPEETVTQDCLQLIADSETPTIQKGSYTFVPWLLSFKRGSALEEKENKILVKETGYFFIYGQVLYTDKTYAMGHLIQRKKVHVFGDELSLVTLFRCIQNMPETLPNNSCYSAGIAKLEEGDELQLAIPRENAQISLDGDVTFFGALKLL
Sequence of Murine APRIL (K104-L241) thioredoxin fusion protein (murine) (Q9D777 104-241, form in doubt): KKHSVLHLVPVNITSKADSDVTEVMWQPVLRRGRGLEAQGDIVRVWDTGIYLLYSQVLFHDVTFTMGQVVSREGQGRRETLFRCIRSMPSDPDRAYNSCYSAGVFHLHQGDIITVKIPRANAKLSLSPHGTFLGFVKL

## AGQCSQNEYFDSLLHACIPCQLRCSSNTPPLTCQRYCNASVTNSVKG (Fc fusion, not shown: a dimerising Fc or GST, also called wt BCMA-Fc; BCMA-Fc wt) [BCMA-Fc (BCMA(wt)-Fc immunoadhesin)]
[1]
  koff: 0.0001 s⁻¹
[2]
  IC50: 7 to 10 nM

B1: BCMA ECD from baculovirus expression (human BCMA residues 4-53, His-tagged) (receptor, not shown: small tags and cut ends)
chain: MAGQCSQNEYFDSLLHACIPCQLRCSSNTPPLTCQRYCNASVTNSVKGTN
modifications: not fully specified (N-terminus); ends and bridges not checked; also: mixture of glycosylated and non-glycosylated species
notes: also called BCMA(baculovirus); baculovirus BCMA
[3]
  binding result: no binding (tested: analyte 6.25 nM to 200 nM)
